Source: the supplement of paper PMC5998384

How the values were obtained:
[1] = test system: HeLa Kyoto; assay: solubility in G1/S (NP-40 vs SDS abundance) (log2 ratio); higher = more soluble; details: cell cycle stage: G1/S
[2] = test system: HeLa Kyoto; assay: melting temperature (median over replicates), in situ; higher = more thermally stable
[3] = test system: HeLa Kyoto; assay: solubility change mitosis vs G1/S (difference of NP-40 vs SDS log2 ratios) (log2 ratio difference); higher = more soluble in mitosis
[4] = test system: HeLa Kyoto; assay: thermal stability score vs G1/S (z-score of summed log2 fold changes over temperatures); higher = more thermally stable than in G1/S
[5] = cell cycle stage: early G1 (4.5 h after nocodazole release)
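For melting temperature (median over replicates), in situ in this document: HeLa Kyoto cells synchronized by double thymidine or nocodazole block, proteins quantified by TMT10plex mass spectrometry, three independent biological replicates.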
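For solubility change mitosis vs G1/S (difference of NP-40 vs SDS log2 ratios) in this document: synchronized HeLa Kyoto cells (double thymidine block for G1/S, nocodazole release for mitosis), protein amounts in NP-40 versus SDS lysates quantified by mass spectrometry, three biological replicates.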
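For solubility in G1/S (NP-40 vs SDS abundance) in this document: HeLa Kyoto cells arrested at G1/S by double thymidine block, proteins quantified by TMT10plex mass spectrometry in mild NP-40 versus SDS extracts, three biological replicates.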
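For thermal stability score vs G1/S (z-score of summed log2 fold changes over temperatures) in this document: synchronized HeLa Kyoto cells, proteins quantified by TMT10plex mass spectrometry, three biological replicates, mitosis taken 0.5 h after nocodazole release, G1/S directly after double thymidine block.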

| Sequence | solubility in G1/S (log2) [1] | melting temperature ([2]; cell cycle stage: G1/S) [°C] | melting temperature ([2]; cell cycle stage: mitosis) [°C] | solubility change mitosis (log2) [3] | thermal stability score [4, 5] | thermal stability score ([4]; cell cycle stage: mitosis) |
| --- | --- | --- | --- | --- | --- | --- |
| MAAGAGTAGPASGPGVVRDPAASQPRKRPGREGGEGARRSDTMAGGGGSSDGSGRAAGRRASRSSGRARRGRHEPGLGGPAERGAGEARLEEAVNRWVLKFYFHEALRAFRGSRYGDFRQIRDIMQALLVRPLGKEHTVSRLLRVMQCLSRIEEGENLDCSFDMEAELTPLESAINVLEMIKTEFTLTEAVVESSRKLVKEAAVIICIKNKEFEKASKILKKHMSKDPTTQKLRNDLLNIIREKNLAHPVIQNFSYETFQQKMLRFLESHLDDAEPYLLTMAKKALKSESAASSTGKEDKQPAPGPVEKPPREPARQLRNPPTTIGMMTLKAAFKTLSGAQDSEAAFAKLDQKDLVLPTQALPASPALKNKRPRKDENESSAPADGEGGSELQPKNKRMTISRLVLEEDSQSTEPSAGLNSSQEAASAPPSKPTVLNQPLPGEKNPKVPKGKWNSSNGVEEKETWVEEDELFQVQAAPDEDSTTNITKKQKWTVEESEWVKAGVQKYGEGNWAAISKNYPFVNRTAVMIKDRWRTMKRLGMN [TERF2] | 0.0628 | 48.9 | 50.3 | 0.0937 | 1.08 | 1.27 |
| MAAGGSTQQRRREMAAASAAAISGAGRCRLSKIGATRRPPPARVRVAVRLRPFVDGTAGASDPPCVRGMDSCSLEIANWRNHQETLKYQFDAFYGERSTQQDIYAGSVQPILRHLLEGQNASVLAYGPTGAGKTHTMLGSPEQPGVIPRALMDLLQLTREEGAEGRPWALSVTMSYLEIYQEKVLDLLDPASGDLVIREDCRGNILIPGLSQKPISSFADFERHFLPASRNRTVGATRLNQRSSRSHAVLLVKVDQRERLAPFRQREGKLYLIDLAGSEDNRRTGNKGLRLKESGAINTSLFVLGKVVDALNQGLPRVPYRDSKLTRLLQDSLGGSAHSILIANIAPERRFYLDTVSALNFAARSKEVINRPFTNESLQPHALGPVKLSQKELLGPPEAKRARGPEEEEIGSPEPMAAPASASQKLSPLQKLSSMDPAMLERLLSLDRLLASQGSQGAPLLSTPKRERMVLMKTVEEKDLEIERLKTKQKELEAKMLAQKAEEKENHCPTMLRPLSHRTVTGAKPLKKAVVMPLQLIQEQAASPNAEIHILKNKGRKRKLESLDALEPEEKAEDCWELQISPELLAHGRQKILDLLNEGSARDLRSLQRIGPKKAQLIVGWRELHGPFSQVEDLERVEGITGKQMESFLKANILGLAAGQRCGAS [KIF22] | -0.459 | 50 | 48.2 | 0.342 | 1.72 | 2.31 |
| MAAGKSGGSAGEITFLEALARSESKRDGGFKNNWSFDHEEESEGDTDKDGTNLLSVDEDEDSETSKGKKLNRRSEIVANSSGEFILKTYVRRNKSESFKTLKGNPIGLNMLSNNKKLSENTQNTSLCSGTVVHGRRFHHAHAQIPVVKTAAQSSLDRKERKEYPPHVQKVEINPVRLSRLQGVERIMKKTEESESQVEPEIKRKVQQKRHCSTYQPTPPLSPASKKCLTHLEDLQRNCRQAITLNESTGPLLRTSIHQNSGGQKSQNTGLTTKKFYGNNVEKVPIDIIVNCDDSKHTYLQTNGKVILPGAKIPKITNLKERKTSLSDLNDPIILSSDDDDDNDRTNRRESISPQPADSACSSPAPSTGKVEAALNENTCRAERELRSIPEDSELNTVTLPRKARMKDQFGNSIINTPLKRRKVFSQEPPDALALSCQSSFDSVILNCRSIRVGTLFRLLIEPVIFCLDFIKIQLDEPDHDPVEIILNTSDLTKCEWCNVRKLPVVFLQAIPAVYQKLSIQLQMNKEDKVWNDCKGVNKLTNLEEQYIILIFQNGLDPPANMVFESIINEIGIKNNISNFFAKIPFEEANGRLVACTRTYEESIKGSCGQKENKIKTVSFESKIQLRSKQEFQFFDEEEETGENHTIFIGPVEKLIVYPPPPAKGGISVTNEDLHCLNEGEFLNDVIIDFYLKYLVLEKLKKEDADRIHIFSSFFYKRLNQRERRNHETTNLSIQQKRHGRVKTWTRHVDIFEKDFIFVPLNEAAHWFLAVVCFPGLEKPKYEPNPHYHENAVIQKCSTVEDSCISSSASEMESCSQNSSAKPVIKKMLNKKHCIAVIDSNPGQEESDPRYKRNICSVKYSVKKINHTASENEEFNKGESTSQKVADRTKSENGLQNESLSSTHHTDGLSKIRLNYSDESPEAGKMLEDELVDFSEDQDNQDDSSDDGFLADDNCSSEIGQWHLKPTICKQPCILLMDSLRGPSRSNVVKILREYLEVEWEVKKGSKRSFSKDVMKGSNPKVPQQNNFSDCGVYVLQYVESFFENPILSFELPMNLANWFPPPRMRTKREEIRNIILKLQEDQSKEKRKHKDTYSTEAPLGEGTEQYVNSISD [SENP6] | -0.261 | 51.8 | 52.5 | 0.144 | -0.65 | 0.269 |
| MAAKGAHGSYLKVESELERCRAEGHWDRMPELVRQLQTLSMPGGGGNRRGSPSAAFTFPDTDDFGKLLLAEALLEQCLKENHAKIKDSMPLLEKNEPKMSEAKNYLSSILNHGRLSPQYMCEAMLILGKLHYVEGSYRDAISMYARAGIDDMSMENKPLYQMRLLSEAFVIKGLSLERLPNSIASRFRLTEREEEVITCFERASWIAQVFLQELEKTTNNSTSRHLKGCHPLDYELTYFLEAALQSAYVKNLKKGNIVKGMRELREVLRTVETKATQNFKVMAAKHLAGVLLHSLSEECYWSPLSHPLPEFMGKEESSFATQALRKPHLYEGDNLYCPKDNIEEALLLLLISESMATRDVVLSRVPEQEEDRTVSLQNAAAIYDLLSITLGRRGQYVMLSECLERAMKFAFGEFHLWYQVALSMVACGKSAYAVSLLRECVKLRPSDPTVPLMAAKVCIGSLRWLEEAEHFAMMVISLGEEAGEFLPKGYLALGLTYSLQATDATLKSKQDELHRKALQTLERAQQLAPSDPQVILYVSLQLALVRQISSAMEQLQEALKVRKDDAHALHLLALLFSAQKHHQHALDVVNMAITEHPENFNLMFTKVKLEQVLKGPEEALVTCRQVLRLWQTLYSFSQLGGLEKDGSFGEGLTMKKQSGMHLTLPDAHDADSGSRRASSIAASRLEEAMSELTMPSSVLKQGPMQLWTTLEQIWLQAAELFMEQQHLKEAGFCIQEAAGLFPTSHSVLYMRGRLAEVKGNLEEAKQLYKEALTVNPDGVRIMHSLGLMLSRLGHKSLAQKVLRDAVERQSTCHEAWQGLGEVLQAQGQNEAAVDCFLTALELEASSPVLPFSIIPREL [TTC7A] | 0.161 | 51.2 |  | -0.168 | 0.0827 | -0.515 |
| MAAKVFESIGKFGLALAVAGGVVNSALYNVDAGHRAVIFDRFRGVQDIVVGEGTHFLIPWVQKPIIFDCRSRPRNVPVITGSKDLQNVNITLRILFRPVASQLPRIFTSIGEDYDERVLPSITTEILKSVVARFDAGELITQRELVSRQVSDDLTERAATFGLILDDVSLTHLTFGKEFTEAVEAKQVAQQEAERARFVVEKAEQQKKAAIISAEGDSKAAELIANSLATAGDGLIELRKLEAAEDIAYQLSRSRNITYLPAGQSVLLQLPQ [PHB] | -0.137 | 59.5 | 58.1 | -0.0774 | -1.45 | -2.71 |
